Source: patent US20260137799A1, “ANTI-MUC1* ANTIBODY DRUG COMPLEXES AND USES THEREOF” (Minerva Biotechnologies Corporation, priority 2023, published 2026)

Experiments:
[1] = Toxicity in animal studies; type: in vivo; details: each antibody incorporated into several ADC formats
Source text: Exatecans and deruxtecans can also have bystander effects. […] It is not completely clear whether these side effects are due to the payload or to the HER2 target, which is also expressed on normal lung and normal heart. The first two patients treated with a HER2 targeting CAR T cell product died shortly after the infusion. […] More recently, yet another patient died after being treated with a different HER2-targeting ADC. […] 32CB1, C2 and 20A10 unexpectedly have an extremely high degree of cancer specificity and elicited no toxicities in animal studies, where each antibody was incorporated into several ADC formats.

PSMGFR C-10 peptide = biological target: T1, PSMGFR C-10 peptide; test: ELISA on PSMGFR C-10 peptide; Table 4 grade
T1 peptide: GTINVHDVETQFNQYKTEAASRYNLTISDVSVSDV

MUC1*45 = MUC1*45 (UniProt P15941 1110-1255); test: cell-based or functional assay
T47D = test: xCELLigence impedance cytotoxicity, T47D; type: cell-based, human; details: Example 9 (FIGS. 35-36); average over batches for DXd ADCs; read-out: IC50 for killing of breast cancer T47D-wt cells
Method: (§1) An xCELLigence RTCA MP Instrument (Agilent) was used to assess real-time killing of target cancer cells). In the xCELLigence system, target cancer cells, which are adherent, are plated onto electrode array 96-well plates. Adherent cells insulate the electrode and increase the impedance. The number of adherent cancer cells is directly proportional to impedance. […] Therefore, increasing impedance reflects the growth of the cancer cells and decreasing impedance reflects the killing of the cancer cells.
(§2) Target Cancer cells (Table 9) were seeded onto a multi-electrode well plate at a density of 5000 cells/well (100 μL of a 50,000 cells/mL stock) and incubated for 24 hr in a 37° C./5% CO2 incubator. ADCs were prepared as a 2× solution in corresponding growth media and 100 μL of each concentration was added to target cells. As a positive control (100% cell killing) cells were treated with either 1% triton or 1 μM Taxol instead of ADC. After 40-120 hours incubation in a 37° C./5% CO2 incubator cell killing was assessed. In this assay, impedance is measured in real-time. When the adherent cancer cells are killed and come off the electrode surface, impedance (insulation) decreases.

NCI-H1975 = test: xCELLigence impedance cytotoxicity, NCI-H1975; type: cell-based, human; details: Example 9 (FIGS. 35-36); read-out: IC50 for killing of H1975-wt cells
Method: as §1, §2

[2] = test system: CFPAC1-wt pancreatic cancer cell line; test: xCELLigence impedance cytotoxicity, CFPAC1; type: cell-based, human; details: Example 9 (FIGS. 35-36); read-out: IC50, CFPAC1-wt pancreatic cancer cells
Method: as §1, §2
(§3) To directly compare the C2 and 3C2B1 anti-MUC1* antibodies as ADC targeting domains, a panel of MUC1* positive cancer cell lines representing different cancer types were treated with C2-deruxtecan versus 3C2B1-deruxtecan (FIG. 35) or C2-MC-VA-PAB-exatecan versus 3C2B1-MC-VA-PAB-exatecan (FIG. 36). In some cases, the cancer cells were engineered to express high levels of MUC1*45.

[3] = test system: H2110-wt lung cancer cell line; test: xCELLigence impedance cytotoxicity, H2110; type: cell-based, human; details: Example 9 (FIGS. 35-36); read-out: IC50, lung cancer H2110-wt cells
Method: as §1, §2, §3

[4] = test system: breast cancer, pancreatic cancer, and lung cancer cell lines; test: Cytotoxicity of ADCs with additional linkers and toxins (FIGS. 30-31); type: cell-based; details: breast cancer and pancreatic cancer cell
Method: FIG. 30 is a table showing cytotoxicity of the indicated MUC1* ADCs against indicated cancer cells. IC50 values were determined from xCELLigence data. FIG. 30 discloses “GGFG” as SEQ ID NO: 160, “GGGG” as SEQ ID NO: 161, “GGVA” as SEQ ID NO: 162, “GGVG” as SEQ ID NO: 163.
FIG. 31 is a table showing cytotoxicity of the indicated MUC1* ADCs against indicated cancer cells. IC50 values were determined from PrestoBlue data.
An anti-MUC1* antibody was conjugated to several toxins via a number of different linkers (compounds VIII-XXII).

T47D-MUC1* = test: PrestoBlue live/dead cell assay, T47D-MUC1*; type: cell-based, human; details: Presto Blue; 72-120 hour incubation
Method: (§4) Another method of measuring the killing activity of ADCs against target cancer cells is to use the PrestoBlue live/dead cell assay (ThermoFisher). Target cancer cells were seeded in a black-walled, clear-bottom 96-well tissue culture plate at a density of 5000 cells/well (100 μL of a 50,000 cells/mL stock) and incubated overnight in a 37° C./5% CO2 incubator. ADCs were prepared as a 2× solution in corresponding cancer cell growth media and 100 μL of each concentration was added to target cancer cells. As a positive control (100% killing) cancer cells were treated with 1 μM Taxol instead of ADC. After 72 hour-120 hour incubation in a 37° C./5% CO2 incubator, cell viability was measure by fluorescence using the PrestoBlue HS assay (ThermoFisher). Briefly, after the incubation period, 20 μL of PrestoBlue HS solution was added. Fluorescence (Ex 560 nm/Em 590 nm) was recorded after 30-90 min. incubation using a Tecan plate reader. Percentage viability was determined by PrestoBlue HS staining and normalized to 1 μM taxol treated cells.
(§5) The normalized fluorescence values were imported into the graph program, Sigma Plot, data plotted as ADC concentration versus normalized fluorescence signal and curve fitted using a four-parameter Hill equation: f=y0+a*x^b/(c^b+x^b) to calculate IC50 values. IC50 values for the ADCs were generally consistent between the xCELLigence and Presto Blue assays.

HPAFII = test: PrestoBlue live/dead cell assay, HPAFII; type: cell-based, human; details: Presto Blue; 72-120 hour incubation
Method: as §4, §5

HPAFII-MUC1* = test: PrestoBlue live/dead cell assay, HPAFII-MUC1*; type: cell-based, human; details: Presto Blue; 72-120 hour incubation
Method: as §4, §5

B1: 20A10: anti-MUC1* monoclonal antibody, IgG2b isotype (antibody)
VH: EVMLVESGGGLVKPGGSLKLSCAASGFTFSTYAMSWIRQTPEKRLEWVASIGRAGSTYYSDSVKGRFTISRDNVRNILYLQMSSLRSEDTAMYYCARGPIYNDYDEFAYWGQGTLVTVSAAKTTPPSVYPLAPGCGDTTGSSVTLGCLVKGYFPESVTVTWNSGSLSSSVHTFPALLQSGLYTMSSSVTVPSSTWPSQTVTCSVAHPASSTTVDKKLEPSGPISTINPCPPCKECHKCPAPNLEGGPSVFIFPPNIKDVLMISLTPKVTCVVVDVSEDDPDVRISWFVNNVEVHTAQTQTHREDYNSTIRVVSALPIQHQDWMSGKEFKCKVNNKDLPSPIERTISKIKGLVRAPQVYILPPPAEQLSRKDVSLTCLVVGFNPGDISVEWTSNGHTEENYKDTAPVLDSDGSYFIYSKLDIKTSKWEKTDSFSCNVRHEGLKNYYLKKTISRSPGK
VL: NIMMTQSPSSLAVSAGEKVTMSCKSSQSVLYSSNQKNYLAWYQQKPGQSPKLLIYWASTRESGVPDRFTGSGSGTDFTLTISSVQAEDLAVYYCHQYLSSLTFGAGTKLELKADAAPTVSIFPPSSEQLTSGGASVVCFLNNFYPKDINVKWKIDGSERQNGVLNSWTDQDSKDSTYSMSSTLTLTKDEYERHNSYTCEATHKTSTSPIVKSFNRNEC
- toxicities in animal studies [1]: no toxicities

B2: anti-MUC1* antibody 20A10 (antibody, IgG2b, V domains shown)
VH: EVMLVESGGGLVKPGGSLKLSCAASGFTFSTYAMSWIRQTPEKRLEWVASIGRAGSTYYSDSVKGRFTISRDNVRNILYLQMSSLRSEDTAMYYCARGPIYNDYDEFAYWGQGTLVTVSA
VL: NIMMTQSPSSLAVSAGEKVTMSCKSSQSVLYSSNQKNYLAWYQQKPGQSPKLLIYWASTRESGVPDRFTGSGSGTDFTLTISSVQAEDLAVYYCHQYLSSLTFGAGTKLELKA
notes: Humanised form is m25
- binding result (PSMGFR C-10 peptide): no binding

B3: 3C2B1-MC-VA-PAB-exatecan (antibody, V domains shown)
VH: EVMLVESGGGLVKPGGSLKLSCAASGITFSTYTMSWVRQTPEKRLEWVATISTGGDKTYYSDSVKGRFTISRDNAKNNLYLQMSSLRSEDTALYYCARGTTAMYYYAMDYWGQGTSVTVSS
VL: DIVLTQSPASLAVSLGQRATISCRASKSISTSDYNYIHWYQQKPGQPPKLLIYLASNLESGVPARFSGSGSGTDFTLNIHPVEEEDAATYYCQHSRELPLTFGAGTKLELK
modifications: MC-VA-PAB-exatecan on reduced cysteine thiols of the antibody, sites not stated; MC-VA-PAB-exatecan on reduced cysteine thiols of the antibody, sites not stated; DAR 5.2
- IC50, killing of H1975 cells engineered to express MUC1*45 (xCELLigence) (MUC1*45): 141 nM
- IC50, killing of T47D cells engineered to express more MUC1*45 (xCELLigence) (MUC1*45): 31 nM
- IC50 (T47D): 77 nM
- IC50 (NCI-H1975): 189 nM
- IC50 [2]: 40 nM
- IC50 [3]: 113 nM

B4: C2-deruxtecan (antibody, mouse IgG1, kappa)
VH: EVQLEESGGGLVKPGGSLKLSCAASGFTFSGYAMSWVRQTPEKRLEWVATISSGGTYIYYPDSVKGRFTISRDNAKNTLYLQMSSLRSEDTAMYYCARLGGDNYYEYFDVWGAGTTVTVSSAKTTPPSVYAKTTPPSVYPLAPGSAAQTNSMVTLGCLVKGYFPEPVTVTWNSGSLSSGVHTFPAVLQSDLYTLSSSVTVPSSTWPSETVTCNVAHPASSTKVDKKIVPRDCGCKPCICTVPEVSSVFIFPPKPKDVLTITLTPKVTCVVVDISKDDPEVQFSWFVDDVEVHTAQTQPREEQFNSTFRSVSELPIMHQDWLNGKEFKCRVNSAAFPAPIEKTISKTKGRPKAPQVYTIPPPKEQMAKDKVSLTCMITDFFPEDITVEWQWNGQPAENYKNTQPIMDTDGSYFVYSKLNVQKSNWEAGNTFTCSVLHEGLHNHHTEKSLSHSPGK
VL: DIVITQSTASLGVSLGQRATISCRASKSVSTSGYSYMHWYQQRPGQPPKLLIYLASNLESGVPARFSGSGSGTDFTLNIHPVEEEDAATYYCQHSRELPFTFGGGTKLEIKRADAAPTVSADAAPTVSIFPPSSEQLTSGGASVVCFLNNFYPKDINVKWKIDGSERQNGVLNSWTDQDSKDSTYSMSSTLTLTKDEYERHNSYTCEATHKTSTSPIVKSFNRNEC
modifications: deruxtecan (MC-GGFG-AM-DXd) on reduced cysteine thiols of the antibody, sites not stated; deruxtecan (MC-GGFG-AM-DXd) on reduced cysteine thiols of the antibody, sites not stated; average DAR 7.7
- IC50, killing of H1975 lung cancer cells engineered to express MUC1*45 (xCELLigence) (MUC1*45): 54 nM
- IC50, killing of T47D breast cancer cells engineered to express MUC1*45 (xCELLigence) (MUC1*45): 2 nM

B5: C2 MC-VA-AM DXd (conjugate, listed as Mus sp.)
heavy: B4 VH
light: B4 VL
modifications: conjugated MC-VA-AM DXd linker-toxin
- IC50 compared to deruxtecan ADC [4]: three-fold lower

B6: C2 MC-VC-PAB MMAF (conjugate, listed as Mus sp.)
heavy: B4 VH
light: B4 VL
modifications: MC-VC-PAB-MMAF
notes: ADC: antibody C2 conjugated via MC-VC-PAB linker to MMAF
- IC50 (T47D-MUC1*): 1.3 nM
- IC50 (HPAFII): 100 nM
- IC50 (HPAFII-MUC1*): 90 nM
